{"source": "patent US11633499B2", "about": "“Anti-TMEM-180 antibody, anticancer drug and cancer testing method” (NATIONAL CANCER CENTER JAPAN, priority 2016, dated 2023)", "molecules": {"B1": {"name": "clone 1361: rat IgG anti-TMEM-180 monoclonal antibody; variable regions SEQ ID NOs: 70 and 71 (antibody, V domains shown)", "VH": "MDIRLSLVFLVLFIKGVQCEVQLVESGGGLVQPGRSLKLSCVASGFTFNNYWMTWIRQAPGKGLEWVASITNTGGSTYYPDSVKGRFTISRDYAKSTLYLQMNSLRSEDTATYYCTRAGYSSYPDYFDYWGQGVMLTVSS", "VL": "MMAPVQLLGLLLLWLPAMRCNIQMTQSPSLLSASVGDRVTLSCKAGQNIYNYLAWYQQKLGEAPKLLIYNANSLQTGIPSRFSGSGSGTDFTLTISSLQPEDVATYFCQQYSSGWTFGGGTKLELK"}, "B2": {"name": "1361-7 clone: variant having an amino acid substitution S82A in the 1361 antibody (antibody, V domains shown)", "VH": "EVQLVESGGGLVQPGRSLKLSCVASGFTFNNYWMTWIRQAPGKGLEWVASITNTGGSTYYPDAVKGRFTISRDYAKSTLYLQMNSLRSEDTATYYCTRAGYSSYPDYFDYWGQGVMLTVSS", "VL": "NIQMTQSPSLLSASVGDRVTLSCKAGQNIYNYLAWYQQKLGEAPKLLIYNANSLQTGIPSRFSGSGSGTDFTLTISSLQPEDVATYFCQQYSSGWTFGGGTKLELK"}, "B3": {"name": "clone 669: rat IgM anti-TMEM-180 monoclonal antibody; variable regions SEQ ID NOs: 78 and 79 (antibody, V domains shown)", "VH": "MGWICIIFLVATATGVHSQVKLLQSGAALVKPGASVKMSCKASGYTFTDYWVSWVKQSHGKSLEWIGEIYPNSGATNFNENFKGKATLTVDKSTSTAYMELSRLTSEDSAIYYCTRDGTMGIAYYFDYWGQGVMVTVSS", "VL": "MMAAVQLLGLLLLWVPAMRCDIQMTQSPSFLSASVGDRVTINCKASQNINRYLNWYQQKLGEAPKLLIYNANSLQTGIPSRFSGSGSGTDFTLTISSLQPEDVATYFCLQHNSWPYTFGAGTKLELK"}}, "key": {"[1]": {"tested_on": "cell lines derived from cancers (ATCC and JCRB)", "experiment": "Reactivity of antibodies to cancer-derived cell lines by FACS (Table 23)", "assay_type": "binding", "procedure": "Cancer cells targeted for measurement were cultured in medium and then added to a V-bottom 96-well plate (Corning Incorporated) to a concentration of 1×10^5 cells/well. The plate was centrifuged for 3 minutes at 440×g and 4° C. followed by removing the supernatant, adding antibody-producing hybridoma culture supernatant or antibody solution to the cell pellet at 50 μL/well and suspending therein. After allowing to react for 45 minutes on ice, the plate was washed three times with a mixture of 0.1% BSA, 2 mM EDTA and PBS at 200 μL/well. The supernatant was removed and secondary antibody was added to the cell pellet at 50 μL/well followed by suspending the cells therein. ALEXAFLUOR 647@ (fluorescent compound) goat anti-rat IgG (H-L) (Life Technologies Corporation) was used for the secondary antibody after diluting 400-fold with a mixture of 0.1% BSA, 2 mM EDTA and PBS. After allowing to react for 45 minutes on ice, the plate was washed three times with a mixture of 0.1% BSA, 2 mM EDTA and PBS at 200 μL/well. After removing the supernatant, 50 ng/mL of propidium iodide, 0.1% BSA, 2 mM EDTA and PBS were added to the cell pellet at 250 µL/well followed by suspending therein. The cells stained in this manner were measured using a flow cytometer such as the Guava easyCyte 8HT (Merck Millipore Corporation) followed by analysis of the resulting data using FlowJO (Tomy Digital Biology Co., Ltd.). FACS analysis was carried out using colon cancer, brain tumor and hematologic cancer.\nCancer-detection rates were tested using monoclonal antibodies (the 669 antibody, 1052 antibody, 1105 antibody, and 1361 antibody).\nIn this Example, the reactivity of the antibodies to the cell lines derived from cancers which were obtained from ATCC and JCRB was analyzed by FACS."}, "[2]": {"tested_on": "cell lines derived from cancers (ATCC and JCRB)", "experiment": "Reactivity of antibodies to cancer-derived cell lines by FACS (Table 23)", "assay_type": "binding", "remark": "listed apart in the source"}, "[3]": {"target": "T1, exosomes presenting TMEM-180 from DLD-1 cell line (Homo sapiens, UniProt Q14CX5)", "T1 construct": "endogenous in cells; host or cells: DLD-1 colon cancer cell line (parent / wild type); culture supernatant exosomes in A20", "T1 sequence (Q14CX5 1-517)": "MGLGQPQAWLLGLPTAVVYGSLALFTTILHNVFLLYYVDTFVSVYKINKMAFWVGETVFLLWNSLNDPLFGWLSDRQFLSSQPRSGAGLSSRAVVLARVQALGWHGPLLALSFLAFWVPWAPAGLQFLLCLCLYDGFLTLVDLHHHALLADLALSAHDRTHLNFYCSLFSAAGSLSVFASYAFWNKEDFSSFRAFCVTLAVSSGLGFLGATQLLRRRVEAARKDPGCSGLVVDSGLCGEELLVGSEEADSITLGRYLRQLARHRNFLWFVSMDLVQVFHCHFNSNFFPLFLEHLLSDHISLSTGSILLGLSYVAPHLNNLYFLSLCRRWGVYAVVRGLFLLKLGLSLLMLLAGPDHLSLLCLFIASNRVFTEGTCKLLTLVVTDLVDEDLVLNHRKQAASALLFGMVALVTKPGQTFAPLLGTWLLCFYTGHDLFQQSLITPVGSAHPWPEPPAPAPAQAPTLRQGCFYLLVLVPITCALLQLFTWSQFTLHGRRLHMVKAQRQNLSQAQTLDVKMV", "experiment": "Detection of TMEM-180 exosomes in culture supernatant (immobilized anti-TMEM-180 antibody, anti-CD9 detection)", "assay_type": "binding", "settings": "immobilized antibody 5 μg/mL; detection with anti-CD9 antibody; FIG. 18", "source_text": "Thus, the inventors constructed a system for detecting exosomes in the culture supernatant. In this system, an anti-TMEM-180 antibody was immobilized on the surface of the plate, and exosomes containing TMEM-180 which were bound to the immobilized antibody were detected with an anti-CD9 antibody which CD9 is an exosome maker. The DLD-1 cell line (also referred to as “wild type DLD-1 cell line”) was used as cells. The TMEM-180 knockdown DLD-1 cell line and K562 cell line were used as negative controls.\nSpecifically, an anti-TMEM-180 antibody was diluted with phosphate buffer such that the concentration will be 5 μg/mL, and then added to a 96 well plate (Maxisorp #442404, Thermo Fisher co., Ltd.) at 50 μL/well. The immobilization reaction was performed by incubation for 2 hours at room temperature or for overnight at 4° C. The plate after the immobilization was washed three times with 300 μL/well of a plate washing solution. The plate was blocked with 200 μL/well of a blocking agent (1% BSA/TBS-T), and allowed to stand for 1 hour at room temperature or for overnight at 4° C. […] Then, the optical density at 450 nm was measured with a plate reader."}, "[4]": {"tested_on": "normal tissues (skin, brain, small intestine, liver, heart, lung, kidney)", "experiment": "Immune histochemistry of normal human tissues", "assay_type": "binding", "procedure": "The paraffin sections were prepared from the tissue specimens in the same way as shown in Example 6 according to a routine procedure. The prepared sections were subjected to reactions with 1 μg/mL of one of the above antibodies. An HRP-labelled anti rat antibody was used as a secondary antibody, which emitted light with DAB. The observation was performed after hematoxylin staining."}, "normal stroma": {"tested_on": "normal stroma", "experiment": "Reactivity to normal stroma", "assay_type": "binding", "settings": "compared with the 1361 antibody"}, "Wildtype DLD-1 cells": {"tested_on": "Wildtype DLD-1 cells", "experiment": "Internalization of the antibody", "assay_type": "cell-based, human", "settings": "488-labelled antibody; 37° C.; 1, 3 or 6 hours; FIG. 25", "description": "Wildtype DLD-1 cells were plated on a 96-well plate at 5,000 cells/well. The plate was incubated at 37° C. for 18 hours. After washing, a 488-labelled 669 antibody was added to the wells at 2 μL/well and was incubated at 37° C. for certain hours (1 hour, 3 hours, or 6 hours). After the wells were washed three times, a rabbit anti 488 antibody was added at 2 μL/well to stand still at 4° C. for 30 minutes to quench the fluorescence derived from the antibodies binding to the cell surface. After the wells were washed three times, 4% PFA was added at 100 μL/well to stand still at room temperature for 10 minutes. After the wells were washed three times, DAPI (1/500 dilution) was added to the wells at 100 μL/well to stand still at room temperature for 5 minutes. After the wells were washed three times, the wells were subjected to photographing or Array Scan analysis."}}}
{"molecule": "B1", "values": [{"measurement": "Detection Sensitivity of Cancers, P/N", "setting": "[1]; Cancer Type: Brain", "result": "(7/7)"}, {"measurement": "Detection Sensitivity of Cancers, P/N", "setting": "[1]; Cancer Type: Colon", "result": "(7/10)"}, {"measurement": "Detection Sensitivity of Cancers, Percentage (%)", "setting": "[1]; Cancer Type: Colon", "result": 70, "unit": "%"}, {"measurement": "recognition of cancers, summary of Table 23", "setting": "[1]; comparison of 1361, 669, 1052, 1105", "result": "highest sensitivity"}, {"measurement": "Detection Sensitivity of Cancers, P/N", "setting": "[2]; Cancer Type: Bladder", "result": "(3/4)"}, {"measurement": "Detection Sensitivity of Cancers, Percentage (%)", "setting": "[2]; Cancer Type: Bladder", "result": 75, "unit": "%"}, {"measurement": "Detection Sensitivity of Cancers, Percentage (%)", "setting": "[2]; Cancer Type: Brain", "result": 100, "unit": "%"}, {"measurement": "Detection Sensitivity of Cancers, P/N", "setting": "[2]; Cancer Type: Brest", "result": "(2/6)"}, {"measurement": "Detection Sensitivity of Cancers, Percentage (%)", "setting": "[2]; Cancer Type: Brest", "result": 33, "unit": "%"}, {"measurement": "Detection Sensitivity of Cancers, P/N", "setting": "[2]; Cancer Type: Gastric", "result": "(5/8)"}, {"measurement": "Detection Sensitivity of Cancers, Percentage (%)", "setting": "[2]; Cancer Type: Gastric", "result": 63, "unit": "%"}, {"measurement": "Detection Sensitivity of Cancers, P/N", "setting": "[2]; Cancer Type: Kidney", "result": "(3/3)"}, {"measurement": "Detection Sensitivity of Cancers, Percentage (%)", "setting": "[2]; Cancer Type: Kidney", "result": 100, "unit": "%"}, {"measurement": "Detection Sensitivity of Cancers, P/N", "setting": "[2]; Cancer Type: Pancreas", "result": "(9/9)"}, {"measurement": "Detection Sensitivity of Cancers, Percentage (%)", "setting": "[2]; Cancer Type: Pancreas", "result": 100, "unit": "%"}, {"measurement": "Detection Sensitivity of Cancers, P/N", "setting": "[2]; Cancer Type: Prostate", "result": "(2/3)"}, {"measurement": "Detection Sensitivity of Cancers, Percentage (%)", "setting": "[2]; Cancer Type: Prostate", "result": 67, "unit": "%"}, {"measurement": "detection of exosomes presenting TMEM-180 in DLD-1 culture supernatant", "setting": "[3]", "result": "successfully detected"}, {"measurement": "staining of normal tissues from skin, brain, small intestine, liver, heart, lung and kidney", "setting": "[4]; 1 μg/mL, paraffin sections", "result": "negative"}, {"measurement": "reactivity to normal skin tissues", "setting": "[4]; FIG. 13", "result": "low reactivity"}]}
{"molecule": "B2", "values": [{"measurement": "reactivity to normal stroma", "setting": "normal stroma", "result": "almost the same as that of the 1361 antibody"}]}
{"molecule": "B3", "values": [{"measurement": "Detection Sensitivity of Cancers, P/N", "setting": "[1]; Cancer Type: Colon", "result": "(3/10)"}, {"measurement": "Detection Sensitivity of Cancers, Percentage (%)", "setting": "[1]; Cancer Type: Colon", "result": 30, "unit": "%"}, {"measurement": "Detection Sensitivity of Cancers, P/N", "setting": "[2]; Cancer Type: Pancreas", "result": "(3/9)"}, {"measurement": "Detection Sensitivity of Cancers, Percentage (%)", "setting": "[2]; Cancer Type: Pancreas", "result": 33, "unit": "%"}, {"measurement": "detection of exosomes presenting TMEM-180 in DLD-1 culture supernatant", "setting": "[3]", "result": "successfully detected"}, {"measurement": "internalization into cells", "setting": "Wildtype DLD-1 cells", "result": "concentrated at a high concentration in the cells"}]}
